Test results: IntAct's records for PubMed 24636949

B1: Unconventional myosin-Ic (Homo sapiens), O00159-2 (parent)
chain: MESALTARDRVGVQDFVLLENFTSEAAFIENLRRRFRENLIYTYIGPVLVSVNPYRDLQIYSRQHMERYRGVSFYEVPPHLFAVADTVYRALRTERRDQAVMISGESGAGKTEATKRLLQFYAETCPAPERGGAVRDRLLQSNPVLEAFGNAKTLRNDNSSRFGKYMDVQFDFKGAPVGGHILSYLLEKSRVVHQNHGERNFHIFYQLLEGGEEETLRRLGLERNPQSYLYLVKGQCAKVSSINDKSDWKVVRKALTVIDFTEDEVEDLLSIVASVLHLGNIHFAANEESNAQVTTENQLKYLTRLLSVEGSTLREALTHRKIIAKGEELLSPLNLEQAAYARDALAKAVYSRTFTWLVGKINRSLASKDVESPSWRSTTVLGLLDIYGFEVFQHNSFEQFCINYCNEKLQQLFIELTLKSEQEEYEAEGIAWEPVQYFNNKIICDLVEEKFKGIISILDEECLRPGEATDLTFLEKLEDTVKHHPHFLTHKLADQRTRKSLGRGEFRLLHYAGEVTYSVTGFLDKNNDLLFRNLKETMCSSKNPIMSQCFDRSELSDKKRPETVATQFKMSLLQLVEILQSKEPAYVRCIKPNDAKQPGRFDEVLIRHQVKYLGLLENLRVRRAGFAYRRKYEAFLQRYKSLCPETWPTWAGRPQDGVAVLVRHLGYKPEEYKMGRTKIFIRFPKTLFATEDALEVRRQSLATKIQAAWRGFHWRQKFLRVKRSAICIQSWWRGTLGRRKAAKRKWAAQTIRRLIRGFVLRHAPRCPENAFFLDHVRTSFLLNLRRQLPQNVLDTSWPTPPPALREASELLRELCIKNMVWKYCRSISPEWKQQLQQKAVASEIFKGKKDNYPQSVPRLFISTRLGTDEISPRVLQALGSEPIQYAVPVVKYDRKGYKPRSRQLLLTPNAVVIVEDAKVKQRIDYANLTGISVSSLSDSLFVLHVQRADNKQKGDVVLQSDHVIETLTKTALSANRVNSININQGSITFAGGPGRDGTIDFTPGSELLITKAKNGHLAVVAPRLNSR

Variants of: B1
Details: with 1433b_human YWHAB

Row | effect of a mutation on the interaction | Variant
1 | disrupting interaction strength | S701A
2 | increasing interaction strength | S701E
